# Results as given in patent publication US20240116985A1 (published 2024).
# Starred links: 1 amine or outer side, 2 acyl side, 3 side chain; linkers in the order of their positions; H or OH if unused. Positions of bridges follow the written chain, without caps; N, C: chain ends. Non-standard residues stand in square brackets, D forms with d. Primed or numbered codes have the meaning given here. (4CF3PhAc)GAbu = (S)-2-amino-4-(N-(carboxymethyl)-2-(4-(trifluoromethyl)phenyl)acetamido)butanoic acid, O=C(Cc1ccc(C(F)(F)F)cc1)N(CC[C@H](N[*:1])C(=O)[*:2])CC(=O)[*:3]; B5(16) = 2-amino-2-(pent-4-en-1-yl)hept-6-enoic acid = 2,2-bis(4-pentenyl)glycine (stitching residue), C=CCCCC(CCCC=C)(N[*:1])C(=O)[*:2]; PyrS2 = (S)-3-amino-1-((pent-4-en-1-yloxy)carbonyl)pyrrolidine-3-carboxylic acid, C=CCCCOC(=O)N1CC[C@@](N[*:1])(C(=O)[*:2])C1; B5(9) = 2-amino-2-(pent-4-en-1-yl)hept-6-enoic acid (2,2-bis(4-pentenyl)glycine), C=CCCCC(CCCC=C)(N[*:1])C(=O)[*:2]; B5(22) = 2-amino-2-(pent-4-en-1-yl)hept-6-enoic acid (two alkene side chains), C=CCCCC(CCCC=C)(N[*:1])C(=O)[*:2]; Bta = N[C@@H](Cc1csc2ccccc12)C(=O)O; αAllylPro = C=CC[C@@]1(C(=O)O)CCCN1; tBuAla = CC(C)(C)C[C@H](N)C(=O)O; 3Thi = N[C@@H](Cc1ccsc1)C(=O)O; S8 = C=CCCCCCC[C@](C)(N)C(=O)O
# T1: full-length beta-Catenin (Uniprot ID P35222) (Homo sapiens (Human), UniProt P35222 1-781)
# T1 construct: Said to be full-length in the fluorescence polarization assay; also called bCat; B-Catenin
# T1 sequence: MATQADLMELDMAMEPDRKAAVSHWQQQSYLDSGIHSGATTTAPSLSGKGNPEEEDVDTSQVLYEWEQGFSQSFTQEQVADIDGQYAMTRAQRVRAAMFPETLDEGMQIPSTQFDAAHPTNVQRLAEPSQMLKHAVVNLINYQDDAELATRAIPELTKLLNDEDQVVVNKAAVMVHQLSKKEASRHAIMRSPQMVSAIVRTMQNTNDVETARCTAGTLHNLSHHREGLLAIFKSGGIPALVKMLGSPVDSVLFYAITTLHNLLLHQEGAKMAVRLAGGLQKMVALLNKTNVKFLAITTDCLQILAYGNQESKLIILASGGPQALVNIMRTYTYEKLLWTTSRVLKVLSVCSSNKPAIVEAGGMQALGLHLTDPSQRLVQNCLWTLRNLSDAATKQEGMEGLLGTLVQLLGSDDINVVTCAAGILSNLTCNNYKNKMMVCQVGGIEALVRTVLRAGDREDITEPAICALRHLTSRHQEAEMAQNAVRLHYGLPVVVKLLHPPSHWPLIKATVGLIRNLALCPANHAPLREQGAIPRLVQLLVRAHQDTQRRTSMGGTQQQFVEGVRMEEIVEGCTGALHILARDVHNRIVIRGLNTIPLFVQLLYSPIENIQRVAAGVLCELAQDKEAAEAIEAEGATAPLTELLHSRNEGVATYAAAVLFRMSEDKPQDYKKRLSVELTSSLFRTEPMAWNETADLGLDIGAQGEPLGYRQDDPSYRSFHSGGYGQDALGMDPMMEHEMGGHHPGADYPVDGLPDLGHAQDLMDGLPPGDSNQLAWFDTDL
# T2: B-cat-Halo (UniProt P35222 1-781)
# T2 sequence (looked up): T1 sequence
# B1: I-637 (peptide)
# peptide: XDIXDEAAFQXFXP
# modifications: not fully specified; Ac-PL3-Asp-Ile-B5-Asp-Glu-Ala-Ala-Phe-Gln-S8-Phe-BztA-Pro-NH2; N-terminal acetyl, C-terminal amide; non-natural PL3 (1), B5 (4), S8 (11), BztA (13); staples PL3-B5 and B5-S8 by olefin metathesis
# notes: Stapled peptide; Earlier-eluting staple isomer composition
# B2: I-640 (peptide)
# peptide: XDIXDEAAFQXFXS
# modifications: not fully specified; Ac-PL3-Asp-Ile-B5-Asp-Glu-Ala-Ala-Phe-Gln-S8-Phe-BztA-Ser-NH2; N-terminal acetyl, C-terminal amide; non-natural PL3 (1), B5 (4), S8 (11), BztA (13); staples PL3-B5 and B5-S8 by olefin metathesis
# notes: Stapled peptide; Later-eluting staple isomer composition
# B3: I-641 (peptide)
# peptide: XDIXDEAAFQXFXT
# modifications: not fully specified; Ac-PL3-Asp-Ile-B5-Asp-Glu-Ala-Ala-Phe-Gln-S8-Phe-BztA-Thr-NH2; N-terminal acetyl, C-terminal amide; non-natural PL3 (1), B5 (4), S8 (11), BztA (13); staples PL3-B5 and B5-S8 by olefin metathesis
# notes: as for B1
# B4: I-642 (peptide)
# peptide: XDIXDEAAFQXFXT
# modifications: not fully specified; Ac-PL3-Asp-Ile-B5-Asp-Glu-Ala-Ala-Phe-Gln-S8-Phe-BztA-Thr-NH2; N-terminal acetyl, C-terminal amide; non-natural PL3 (1), B5 (4), S8 (11), BztA (13); staples PL3-B5 and B5-S8 by olefin metathesis
# notes: as for B2
# B5: I-644 (peptide)
# peptide: Ac-[αAllylPro]DI[B5(9)]DEAAFQ[S8]F[Bta]W-NH2
# modifications: staple 1-4, 4-11
# notes: as for B2
# B6: I-639 (peptide)
# peptide: XDIXDEAAFQXFXS
# modifications: not fully specified; Ac-PL3-Asp-Ile-B5-Asp-Glu-Ala-Ala-Phe-Gln-S8-Phe-BztA-Ser-NH2; N-terminal acetyl, C-terminal amide; non-natural PL3 (1), B5 (4), S8 (11), BztA (13); staples PL3-B5 and B5-S8 by olefin metathesis
# notes: as for B1
# B7: I-643 (peptide)
# peptide: Ac-[αAllylPro]DI[B5(9)]DEAAFQ[S8]F[Bta]W-NH2
# modifications: staple 1-4, 4-11
# notes: as for B1
# B8: I-613 (peptide)
# peptide: XDIXDRAAFQXFXQ
# modifications: not fully specified; Ac-PL3-Asp-Ile-B5-Asp-Arg-Ala-Ala-Phe-Gln-S8-Phe-BztA-Gln-NH2; N-terminal acetyl, C-terminal amide; non-natural PL3 (1), B5 (4), S8 (11), BztA (13); staples PL3-B5 and B5-S8 by olefin metathesis
# notes: as for B1
# B9: I-614 (peptide)
# peptide: XDIXDRAAFQXFXQ
# modifications: not fully specified; Ac-PL3-Asp-Ile-B5-Asp-Arg-Ala-Ala-Phe-Gln-S8-Phe-BztA-Gln-NH2; N-terminal acetyl, C-terminal amide; non-natural PL3 (1), B5 (4), S8 (11), BztA (13); staples PL3-B5 and B5-S8 by olefin metathesis
# notes: as for B2
# B10: I-617 (peptide)
# peptide: XDLXDEAAFTXFXH
# modifications: not fully specified; Ac-PL3-Asp-Leu-B5-Asp-Glu-Ala-Ala-Phe-Thr-S8-Phe-BztA-His-NH2; N-terminal acetyl, C-terminal amide; non-natural PL3 (1), B5 (4), S8 (11), BztA (13); staples PL3-B5 and B5-S8 by olefin metathesis
# notes: as for B1
# B11: I-622 (peptide)
# peptide: XDLXDEAAFTXFXQ
# modifications: not fully specified; Ac-PL3-Asp-Leu-B5-Asp-Glu-Ala-Ala-Phe-Thr-S8-Phe-BztA-Gln-NH2; N-terminal acetyl, C-terminal amide; non-natural PL3 (1), B5 (4), S8 (11), BztA (13); staples PL3-B5 and B5-S8 by olefin metathesis
# notes: as for B1
# B12: I-623 (peptide)
# peptide: XDLXDEAAFTXFXQ
# modifications: not fully specified; Ac-PL3-Asp-Leu-B5-Asp-Glu-Ala-Ala-Phe-Thr-S8-Phe-BztA-Gln-NH2; N-terminal acetyl, C-terminal amide; non-natural PL3 (1), B5 (4), S8 (11), BztA (13); staples PL3-B5 and B5-S8 by olefin metathesis
# notes: as for B2
# B13: I-618 (peptide)
# peptide: XDLXDEAAFTXFXH
# modifications: not fully specified; Ac-PL3-Asp-Leu-B5-Asp-Glu-Ala-Ala-Phe-Thr-S8-Phe-BztA-His-NH2; N-terminal acetyl, C-terminal amide; non-natural PL3 (1), B5 (4), S8 (11), BztA (13); staples PL3-B5 and B5-S8 by olefin metathesis
# notes: as for B2
# B14: I-638 (peptide)
# peptide: XDIXDEAAFQXFXP
# modifications: not fully specified; Ac-PL3-Asp-Ile-B5-Asp-Glu-Ala-Ala-Phe-Gln-S8-Phe-BztA-Pro-NH2; N-terminal acetyl, C-terminal amide; non-natural PL3 (1), B5 (4), S8 (11), BztA (13); staples PL3-B5 and B5-S8 by olefin metathesis
# notes: as for B2
# Target: T1, full-length beta-Catenin (Uniprot ID …)
# Assay: fluorescence polarization competition; peptide titrated against 10 nM full-length beta-catenin + 10 nM 5FAM-TCF4(10-53) probe
# Experimental: The plate was incubated protected from light for 60 minutes at 20° C. prior to read. Reads were performed on a CLARIOstar plate reader (BMG Labtech) in duplicate, and data were fitted to a 1:1 binding model with hill slope using an in-house script. All provided concentrations are final concentrations.
row,EC50 [nM],Binder
1,5000,B1
2,87,B2
3,122,B3
4,118,B4
5,808,B5
6,88,"Ac-[αAllylPro]DI[B5(16)]DEAAFQ[S8]F[Bta]R-NH2 (staple 1-4, 4-11, Stapled peptide) [I-633]"
7,171,"Ac-[αAllylPro]DI[B5(16)]DEAAFQ[S8]F[Bta]F-NH2 (staple 1-4, 4-11, Stapled peptide) [I-635]"
8,109,B6
9,425,"Ac-[αAllylPro]DI[B5(16)]DEAAFQ[S8]F[Bta]L-NH2 (staple 1-4, 4-11, Stapled peptide) [I-634]"
10,958,B7
11,198,"Ac-[αAllylPro]DI[B5(16)]DEAAFQ[S8]F[Bta]Y-NH2 (staple 1-4, 4-11, Stapled peptide) [I-636]"
12,1630,B8
13,1140,B9
14,253,B10
15,230,B11
16,103,B12
17,135,B13
18,3880,B14

# Target: T2, B-cat-Halo
# Assay: cell-based or functional assay
row,NanoBRET Abs IC50 [nM],Binder
1,12900,"Ac-[αAllylPro]D[tBuAla][B5(22)]D[(4CF3PhAc)GAbu]AAFL[PyrS2][3Thi][Bta]Q-NH2 (staple 1-4, 4-11) [I-2246]"
